Assay results as given in PMC4220643, “Localization of the CyanoP binding site on photosystem II by surface plasmon resonance spectroscopy” (Frontiers in Plant Science, 2014).

T1: PsbO (Thermosynechococcus elongatus, UniProt P0A431 27-272)
T1 construct: PsbO of Thermosynechococcus elongatus, without signal peptide; Expression vector derived from pIVEX2.4d; tags and purification are told only in the supplementary material; also called extrinsic PSII subunit PsbO; source: E. coli Overexpress C43, purified
T1 sequence (looked up): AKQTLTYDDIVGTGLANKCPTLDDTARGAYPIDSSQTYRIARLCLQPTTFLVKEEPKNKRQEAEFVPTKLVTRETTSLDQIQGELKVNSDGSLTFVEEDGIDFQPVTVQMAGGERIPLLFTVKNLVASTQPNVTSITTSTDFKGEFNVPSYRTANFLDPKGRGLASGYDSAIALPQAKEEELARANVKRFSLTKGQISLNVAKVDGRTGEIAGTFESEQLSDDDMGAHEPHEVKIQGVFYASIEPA

T2: PsbV (Thermosynechococcus elongatus, UniProt P0A386 27-163)
T2 construct: PsbV of Thermosynechococcus elongatus, without signal peptide; details of expression and purification are in the supplementary material; also called extrinsic PSII subunit PsbV; source: expressed after a published protocol (Andrews et al., 2005), purified as strep-tagged protein
T2 sequence (looked up): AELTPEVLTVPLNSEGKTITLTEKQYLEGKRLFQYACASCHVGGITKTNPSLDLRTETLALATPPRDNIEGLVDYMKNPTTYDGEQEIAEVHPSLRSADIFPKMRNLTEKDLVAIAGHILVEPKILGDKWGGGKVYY

B1: Im7-mD1 (C-terminal D1 domain in its processed form fused to Im7) (domain or fragment)
chain: not shown
B2: CyanoP (natural protein, Thermosynechococcus elongatus, UniProt Q8DH84 20-183, looked up)
chain: CSATSGLQAYVDSYDGYEFLYPRGWVQVQVEDPVDVVFHDIIETTENVSVVVNTVASTKSLEELGSPEEVGDRLLRNIIAPSESGRSSALIAATSQKADDKTYYILEYAVTLPGDGNTAQQRHNLSSIAVSRGKVYTLSVSAPEERWPKVEDQFKTIVSSFTVY
notes: CyanoP of Thermosynechococcus elongatus, without signal peptide; Expression vector derived from pIVEX2.4d; tags and purification are told only in the supplementary material; also called recombinant CyanoP; cyanobacterial homolog of higher plant PsbP; source: E. coli Overexpress C43, purified
B3: Im7-D2 (C-terminal domain of D2 fused to Im7) (domain or fragment)
chain: not shown
notes: luminal C-terminal domain of D2 (PsbD) of Thermosynechococcus elongatus; source: cell-free expression (RTS100, 5Prime), purified on the SPR sensor surface via DNase E7; not shown: Im7 (immunity protein 7, with GGSG linker), N-terminal, kept
B4: Im7-CP43 (e-loop of CP43 fused to Im7) (domain or fragment)
chain: not shown
notes: luminal e-loop of CP43 (PsbC) of Thermosynechococcus elongatus; source: cell-free expression (RTS100, 5Prime), purified on the SPR sensor surface via DNase E7; not shown: Im7 (immunity protein 7, with GGSG linker), N-terminal, kept
B5: Im7-pD1 (C-terminal D1 domain with precursor peptide fused to Im7) (domain or fragment)
chain: not shown
B6: Im7-D1a (D1 a-loop fused to Im7) (domain or fragment)
chain: not shown
notes: D1 a-loop, D1 (PsbA1) of Thermosynechococcus elongatus, residues A54-Q113; source: cell-free expression (RTS100, 5Prime), purified on the SPR sensor surface via DNase E7; not shown: Im7 (immunity protein 7, with GGSG linker), N-terminal, kept
B7: Im7-D1pep (C-terminal peptide of processed D1 fused to Im7) (domain or fragment, Thermosynechococcus elongatus, UniProt P0A444 332-344, looked up)
chain: HERNAHNFPLDLA
notes: C-terminal peptide of processed D1, D1 (PsbA1) of Thermosynechococcus elongatus, residues H332-A344; also called D1 peptide; the 13 C-terminal residues of mature D1; source: cell-free expression (RTS100, 5Prime), purified on the SPR sensor surface via DNase E7; not shown: Im7 (immunity protein 7, with GGSG linker), N-terminal, kept
B8: Im7 fusion protein of PsbU (natural protein, Thermosynechococcus elongatus, UniProt Q9F1L5 31-134, looked up)
chain: ATASTEEELVNVVDEKLGTAYGEKIDLNNTNIAAFIQYRGLYPTLAKLIVKNAPYESVEDVLNIPGLTERQKQILRENLEHFTVTEVETALVEGGDRYNNGLYK
notes: PsbU of Thermosynechococcus elongatus, without signal peptide; PsbU is described only as an Im7 fusion protein; source: E. coli Overexpress C43, purified

Legend:
Details in all cases: both partners purified
CyanoP = target: B2; experiment: SPR; Biacore3000, CM5 chip with covalently bound DNase E7; Im7-tagged luminal PSII domain captured from the cell-free reaction mixture (on-chip purification); reference surface with Im7, both surfaces saturated with purified Im7; soluble protein injected as analyte in triplicate; steady state responses fitted to a one site binding isotherm
[1] = target: T3, Im7-CP47 (e-loop of CP47 fused to Im7) (Thermosynechococcus elongatus, UniProt Q8DIQ1 255-450); experiment: as above
T3 construct: luminal e-loop of CP47 (PsbB) of Thermosynechococcus elongatus; source: cell-free expression (RTS100, 5Prime), purified on the SPR sensor surface via DNase E7; not shown: Im7 (immunity protein 7, with GGSG linker), N-terminal, kept
T3 sequence (Q8DIQ1 255-450): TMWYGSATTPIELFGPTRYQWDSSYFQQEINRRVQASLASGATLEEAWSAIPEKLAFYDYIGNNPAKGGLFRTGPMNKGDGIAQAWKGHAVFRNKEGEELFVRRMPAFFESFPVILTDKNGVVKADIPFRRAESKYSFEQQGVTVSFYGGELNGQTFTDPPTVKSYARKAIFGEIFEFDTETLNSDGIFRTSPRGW

PsbO = target: T1, PsbO; experiment: as above
PsbV [2] = target: T2, PsbV; experiment: as above
PsbV [3] = target: T2, PsbV; experiment: SPR; Biacore3000, CM5 chip coated with DNase E7; extrinsic proteins as Im7 fusion proteins overexpressed in E. coli; who was immobilised is not told in the main text; details in the supplementary material

Work on B1 yielded a Kd (CyanoP) of 74 µM.

For B2, the Kd [1] was 91 µM.

With B3 the Kd (PsbO) was roughly 50 µM and the Kd (CyanoP) was 5.2 µM.

B4 gave a Kd (PsbV [2]) of 26 µM, a Kd (PsbO) of roughly 50 µM and a Kd (CyanoP) of 55 µM.

B5 gave a Kd (CyanoP) of 76 µM.

B6 gave a Kd (PsbO) of 50 to 100 µM and a Kd (CyanoP) of 16.2 µM.

B7 gave a Kd (CyanoP) of 100 to 150 µM.

B8 showed a Kd (PsbV [3]) of 146 µM.
